Measured values as given in EP4477673A1, “IMMUNOCONJUGATE AND USE THEREOF” (priority 2022, dated 2023).

B1: A6_hIgG4 (antibody, V domains shown)
VH: EVQLVESGGGLVQAGGSLRLSCAVSGRTFSSAAMGWFRQAPGKEREFVAAISWSFGSTYYADSVKGRFTISRDNAKNTVYLQMNSLKPEDTAVYYCAADPSIETMGGGWDYWGQGTQVTVSS
B2: A17_hIgG4 (antibody, V domains shown)
VH: EVQVVESGGGLVQPGGSLRLSCVASGLTFSDYSMSWYRQAPGKERELVAIISGSGVIAHYVDSVKGRFTISRDNAKSTVYLQMVSLKPEDRGVYYCRAVSDWDDYWGQGTQVTVSS

Key:
[1] = biological target: T1, human PD-1 (human, UniProt Q15116 25-288); assay: cell-based or functional assay
T1 sequence (Q15116 25-288 limits assumed): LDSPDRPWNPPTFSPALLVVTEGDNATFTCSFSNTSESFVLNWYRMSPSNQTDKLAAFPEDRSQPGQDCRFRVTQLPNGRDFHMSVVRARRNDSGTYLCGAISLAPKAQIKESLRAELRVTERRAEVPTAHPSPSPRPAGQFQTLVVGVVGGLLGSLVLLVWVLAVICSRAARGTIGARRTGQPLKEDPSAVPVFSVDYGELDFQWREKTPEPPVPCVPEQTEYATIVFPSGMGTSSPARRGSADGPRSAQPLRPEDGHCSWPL

[2] = biological target: T1, human PD-1; assay: flow cytometry on Jurkat cells overexpressing human PD-1
[3] = biological target: T2, Human PD-1 protein (His Tag) (human, UniProt Q15116 25-167); assay: ELISA, plate coated with human PD-1 (his tag), anti-human IgG4 Fc-HRP
T2 construct: also called PD1-H5221; PD-1 antigen; not shown: His tag
T2 sequence (Q15116 25-167): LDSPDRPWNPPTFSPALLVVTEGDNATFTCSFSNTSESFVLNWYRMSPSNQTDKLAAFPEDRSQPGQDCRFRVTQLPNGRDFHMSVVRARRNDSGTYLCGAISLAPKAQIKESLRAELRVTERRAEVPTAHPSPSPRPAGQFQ

Row | Binder | IC50, PD-1/PD-L1 NFAT reporter gene system [1] | EC50 [2] | EC50 [3]
1 | B1 | 1.35 nM | 1.09 nM | 0.0861 nM
2 | B2 | 1.2 nM | 0.357 nM | 0.061 nM
